Consider three proteins from article PMC6309520.

Common to all, as to assay: Michaelis-Menten kinetics
Substrate in series [1]: Nc1ncnc2c1ncn2[C@@H]1O[C@H](COP(=O)(O)OP(=O)(O)OC[C@H]2O[C@H](Oc3ccc4c(C(F)(F)F)cc(=O)oc4c3)[C@H](O)[C@@H]2O)[C@@H](O)[C@H]1O
Type of series: biochemical, Homo sapiens.

Substrate in series [2]: Nc1ncnc2c1ncn2[C@@H]1O[C@H](COP(=O)(O)OP(=O)(O)OC[C@H]2O[C@H](Oc3ccc([N+](=O)[O-])cc3)[C@H](O)[C@@H]2O)[C@@H](O)[C@H]1O
The class given is biochemical, Homo sapiens. The following applies: Mg2+ ([…] MgCl2 in assay buffer).

Substrate in series [3]: Nc1ncnc2c1ncn2[C@@H]1O[C@H](COP(=O)(O)OP(=O)(O)OC[C@H]2O[C@H](Oc3ccc4c(C(F)(F)F)cc(=O)oc4c3)[C@H](O)[C@@H]2O)[C@@H](O)[C@H]1O
Type of series: biochemical, Tetrahymena thermophila.

Substrate in series [4]: Nc1ncnc2c1ncn2[C@@H]1O[C@H](COP(=O)(O)OP(=O)(O)OC[C@H]2O[C@H](Oc3ccc([N+](=O)[O-])cc3)[C@H](O)[C@@H]2O)[C@@H](O)[C@H]1O
Type of series: biochemical, Tetrahymena thermophila.

Where two headings read alike, the source gives them in different places.

B1: ARH3 (ADP-ribosyl hydrolase 3, ADPRHL2) (Homo sapiens) (protein)
chain: MAAAAMAAAAGGGAGAARSLSRFRGCLAGALLGDCVGSFYEAHDTVDLTSVLRHVQSLEPDPGTPGSERTEALYYTDDTAMARALVQSLLAKEAFDEVDMAHRFAQEYKKDPDRGYGAGVVTVFKKLLNPKCRDVFEPARAQFNGKGSYGNGGAMRVAGISLAYSSVQDVQKFARLSAQLTHASSLGYNGAILQALAVHLALQGESSSEHFLKQLLGHMEDLEGDAQSVLDARELGMEERPYSSRLKKIGELLDQASVTREEVVSELGNGIAAFESVPTAIYCFLRCMEPDPEIPSAFNSLQRTLIYSISLGGDTDTIATMAGAIAGAYYGMDQVPESWQQSCEGYEETDILAQSLHRVFQKS
By Km is commonly meant the substrate concentration at which the rate is half of its maximum. In general, Vmax refers to the rate approached at saturating substrate. On to B1, for which the Km was 6.3 ± 0.2 µM in series [1] (Mg2+ ([…] MgCl2 in assay buffer)) and 3.2 ± 0.6 µM in series [2]. The maximal velocity (Vmax) in series [1] (Mg2+ ([…] MgCl2 in assay buffer)) worked out at 1.61 µmol/min/mg; in series [2] it was 1.7 µmol/min/mg.

B2: PARG (poly(ADP-ribose) glycohydrolase) (Homo sapiens) (protein)
chain: MNAGPGCEPCTKRPRWGAATTSPAASDARSFPSRQRRVLDPKDAHVQFRVPPSSPACVPGRAGQHRGSATSLVFKQKTITSWMDTKGIKTAESESLDSKENNNTRIESMMSSVQKDNFYQHNVEKLENVSQLSLDKSPTEKSTQYLNQHQTAAMCKWQNEGKHTEQLLESEPQTVTLVPEQFSNANIDRSPQNDDHSDTDSEENRDNQQFLTTVKLANAKQTTEDEQAREAKSHQKCSKSCDPGEDCASCQQDEIDVVPESPLSDVGSEDVGTGPKNDNKLTRQESCLGNSPPFEKESEPESPMDVDNSKNSCQDSEADEETSPGFDEQEDGSSSQTANKPSRFQARDADIEFRKRYSTKGGEVRLHFQFEGGESRTGMNDLNAKLPGNISSLNVECRNSKQHGKKDSKITDHFMRLPKAEDRRKEQWETKHQRTERKIPKYVPPHLSPDKKWLGTPIEEMRRMPRCGIRLPLLRPSANHTVTIRVDLLRAGEVPKPFPTHYKDLWDNKHVKMPCSEQNLYPVEDENGERTAGSRWELIQTALLNKFTRPQNLKDAILKYNVAYSKKWDFTALIDFWDKVLEEAEAQHLYQSILPDMVKIALCLPNICTQPIPLLKQKMNHSITMSQEQIASLLANAFFCTFPRRNAKMKSEYSSYPDINFNRLFEGRSSRKPEKLKTLFCYFRRVTEKKPTGLVTFTRQSLEDFPEWERCEKPLTRLHVTYEGTIEENGQGMLQVDFANRFVGGGVTSAGLVQEEIRFLINPELIISRLFTEVLDHNECLIITGTEQYSEYTGYAETYRWSRSHEDGSERDDWQRRCTEIVAIDALHFRRYLDQFVPEKMRRELNKAYCGFLRPGVSSENLSAVATGNWGCGAFGGDARLKALIQILAAAAAERDVVYFTFGDSELMRDIYSMHIFLTERKLTVGDVYKLLLRYYNEECRNCSTPGPDIKLYPFIYHAVESCAETADHSGQRTGT
Take B2: in series [1], the Km stood at 66.2 ± 15 µM and the Vmax came to 0.84 µmol/min/mg.

B3: ttPARG (T. thermophila PARG) (Tetrahymena thermophila) (protein)
chain: MIEAEKQENKKIQDYQFPLPQKNSELWIIQKKTLQDLSSGKQKLDSFQSLESILEILRDSKNQNDEKYFNLKAVFEQLDKEEQTYFLEQFIPKICQLVLKIKKKQLKNQIPKESKIYEAAFSREEISYYVSCMFLCILKDQDRKIYKDFRLIYLKDLVQQINIRRQEKIKCFYEYLKQALDFSEKESKEVVIFQRINCGQLEDYENWVDKLKAIKLKNVQLTDDKLIEDFPGTLQVDFANCDIGGGILGNGLVQEEIRFCVCPEMLVSLLVFDQSMEANEVIIMKGIKQYSDYQGYSNSFRFVKMGNSKIQKQKRNNPQTILAIDALCFNSSDNQFSEVNVSRELNKSYMGFKQEDQLKTISTGKWGCGAFLGVFDLKFAIQWIASSRSNKKMIICTFQDEQTTKQIQQVFDLYKQKNASIFLKLVMDYPNSKYMEDYTLLEYLIELGKEKATSKNS
In the case of B3, in series [3], the Km is 210 ± 13 µM and the Vmax turned out to be 28.6 µmol/min/mg. In addition, in series [4], the Km is 210 ± 10 µM and the Vmax worked out at 16.9 µmol/min/mg.
